Read-outs that look alike come from different tables or passages of the source.
Key:
[1] = target: human TGFβ1 (PeproTech) (human, UniProt P01137 279-390); experiment: HDX-MS epitope mapping, TGFβ1 with and without mAb
Description: Hydrogen Deuterium Exchange (HDX) experiments were used to determine the epitopes on TGFβ1 to which each antibody series binds. This method establishes the peptide level epitope on TGFβ1 targeted by each mAb by HDX mass spectrometry. For each mAb analysis, TGFβ1 is incubated in deuterium oxide in the presence and absence of mAb, is digested, and fragments are then analyzed and compared for hydrogen/deuterium exchange via mass spectrometry.
More specifically, the method was carried out as follows: One milligram of TGFβ1 was reconstituted in 500 μL control buffer (50 mM phosphate, 100 mM sodium chloride at pH 7.4). […] The mass spectra were recorded in MS only mode.
For pepsin digestion, 10 μg of human TGFβ1 in 80 μL control buffer (50 mM phosphate, 100 mM sodium chloride at pH 7.4) was denatured by adding 160 μL of 8 M urea, 0.85 M TCEP buffer (final pH is 4.0) and incubating the mixture for 3 min at 6° C. Then, the mixture was subjected to pepsin digestion using an-house packed pepsin column (2.1×30 mm) at 11° C. and the resultant peptides was analyzed using a UPLC-MS system comprised of a Waters Acquity UPLC coupled to a Q Exactive™ Hybrid Quadrupole-Orbitrap Mass Spectrometer (Thermo). […]

[2] = target: TGFβ1 (R&D Systems); experiment: cell-based or functional assay
[3] = target: T1, TGFβ3 (R&D Systems) (Homo sapiens (Human), UniProt P10600 301-412, Active TGFβ3 is a disulfide-linked homodimer of this chain; one copy is given.); experiment: SPR, TGFβ on chip
T1 construct: also called TGFB3
T1 sequence: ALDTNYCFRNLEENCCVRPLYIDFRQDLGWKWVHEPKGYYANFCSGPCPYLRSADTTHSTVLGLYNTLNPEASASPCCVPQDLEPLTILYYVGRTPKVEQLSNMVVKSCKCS
From the text: (§1) To avoid affinity differences associated with differential surface preparation that can occur when immobilizing antibodies to surfaces, TGFβ1, TGFβ2, and TGFβ3 (R&D Systems) were directly conjugated to the individual surface. Immobilization was obtained by amine coupling […] using N-hydroxysuccinimide (NHS)/1-Ethyl-3-(3-dimethylaminopropyl) carbodiimide (EDC) chemistry. Chips were quenched with ethanolamine and the affinity with which all candidate mAbs bound to the immobilized TGFβ was evaluated. All curves were fit to a 1:1 model. Affinities <10⁻¹¹ are below the lower limit of quantitation of detection for the instrument.

[4] = target: T2, TGFβ1 (R&D Systems); experiment: SPR, TGFβ on chip
T2 construct: also called TGFB1
T2 sequence (P01137 279-390): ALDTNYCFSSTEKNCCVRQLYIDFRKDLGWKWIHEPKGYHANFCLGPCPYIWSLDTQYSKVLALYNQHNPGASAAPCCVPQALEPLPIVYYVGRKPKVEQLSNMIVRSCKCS
From the text: as §1

[5] = target: T3, TGFβ2 (R&D Systems); experiment: SPR, TGFβ on chip
T3 construct: also called TGFB2
T3 sequence (P61812 303-414, species assumed, looked up): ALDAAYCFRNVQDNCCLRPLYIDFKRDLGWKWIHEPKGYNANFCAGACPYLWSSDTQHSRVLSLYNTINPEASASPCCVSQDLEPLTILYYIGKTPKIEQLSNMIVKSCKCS
From the text: as §1

[6] = target: T1, TGFβ3 (R&D Systems); experiment: cell-based or functional assay
[7] = target: T4, canine TGFβ2 (canine, UniProt A0A8I3PZZ6 331-442); experiment: SPR, TGFβ on chip
T4 sequence: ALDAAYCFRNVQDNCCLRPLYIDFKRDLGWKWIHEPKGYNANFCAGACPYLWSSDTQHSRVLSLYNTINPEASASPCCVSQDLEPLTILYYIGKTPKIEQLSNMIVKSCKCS
From the text: as §1

[8] = target: canine TGFβ1 (canine, UniProt P54831 279-390, limits assumed); experiment: SPR, TGFβ on chip
canine TGFβ1, sequence (P54831 279-390 limits assumed): as the sequence (P01137 279-390) above
From the text: as §1

[9] = target: T5, canine TGFβ3 (canine, UniProt A0A8I3S1P1 346-457); experiment: SPR, TGFβ on chip
T5 sequence: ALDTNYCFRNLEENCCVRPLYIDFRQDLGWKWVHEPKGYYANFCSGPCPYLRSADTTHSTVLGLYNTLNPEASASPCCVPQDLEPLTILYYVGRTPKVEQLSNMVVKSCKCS
From the text: as §1

[10] = target: T2, TGFβ1 (R&D Systems); experiment: cell-based or functional assay; remark: listed apart in the source
[11] = target: T2, TGFβ1 (R&D Systems); experiment: SPR
[12] = target: T1, TGFβ3 (R&D Systems); experiment: SPR full titration
[13] = target: T2, TGFβ1 (R&D Systems); experiment: SPR full titration
[14] = target: T2, TGFβ1 (R&D Systems); experiment: cell-based or functional assay; remark: listed apart in the source
[15] = target: T1, TGFβ3 (R&D Systems); experiment: cell-based or functional assay; remark: listed apart in the source
[16] = target: T2, TGFβ1 (R&D Systems); experiment: cell-based or functional assay; remark: listed apart in the source
[17] = target: T3, TGFβ2 (R&D Systems); experiment: cell-based or functional assay
[18] = target: T1, TGFβ3 (R&D Systems); experiment: SPR full titration; remark: listed apart in the source
[19] = target: T2, TGFβ1 (R&D Systems); experiment: SPR full titration; remark: listed apart in the source
[20] = target: T3, TGFβ2 (R&D Systems); experiment: SPR full titration

human TGFβ1 (PeproTech), sequence (P01137 279-390 limits assumed): as the sequence (P01137 279-390) above

B1: 04H09 (mouse) (antibody, V domains shown)
VH: QVQLQQSGAELVKPGASVKISCKASGYAFSSSWMNWVKQRPGKGLEWIGQIYPGDGDTNYNGKFKGKATLTADKSSSTAYMQLSSLTSEDSAVYFCARHYDGSTDYWGQGTTLTVSS
VL: DIQMTQSPASLSVSVGETVTITCRASENIYSNLAWYQQKQGKSPQLLVYAATNLADGVPSRFSGSGSGTQYSLKINSLQSEDFGSYYCQHFWGTPYTFGGGTKLEIK
notes: mouse IgG, kappa, purified from hybridoma; also called mouse 04H09 monoclonal antibody; 04H09 (murine)
Q: Does B1 bind [1]?
A: Result: binds

Q: And the “CMVIC pSmad-3, IC50” value [2]?
A: Its value is 4.66 nM.

Q: What about the Kd [3] of the same binder?
A: The Kd was 1.26 nM.

Q: What about the Kd [4] of the same binder?
A: Its Kd is 0.0443 nM.

Q: And the Kd [5]?
A: Its Kd is 7.13 nM.

B2: Can04H09 VH1/VL4 (antibody, V domains shown)
VH: EVQLVQSGAEVKKPGASVKVSCKTSGYTFISSWMNWVRQAPGAGLDWMGQIYPGDGDTNYNGKFKGRVTLTADTSTSTAYMELSSLRAGDIAVYYCARHYDGSTDYWGQGTLVTVSS
VL: EIVMTQSPASLSLSQGEKVTITCRASENIYSNLAWYQQRPGQAPKLLIYAATNLADGVPSRFSGSGSGTDFSLTISSLEPEDVAVYYCQHFWGTPYTFGQGTK
Q: B2 was tested. Which “CMVIC pSmad-3, IC50” value [6] did it give?
A: The value was 136 nM.

Q: And the “CMVIC pSmad-3, IC50” value [2]?
A: The value was 0.88 nM.

Q: What about the Kd [7] of the same binder?
A: The Kd was 29.7 nM.

Q: What about the Kd [8] of the same binder?
A: Its Kd is 2.18 nM.

Q: What about the Kd [9] of the same binder?
A: The Kd was 4.78 nM.

Q: What about the “IC50 (read off the curve), inhibition of TGFβ1-induced SMAD3 signalling [panel TGFβ1]” value [10] of the same binder?
A: The value was about 0.2 µg/mL.

B3: felHclb 1-1YMN (antibody, V domains shown)
VH: QVLLVQSGAEVRTPGASVKIFCKASGYIFITYYMNWVRQSPAQGLEWMGSIFPASGSTSYAQKFQGRLTLTADTSTNTAYMELSSLRSADTAMYYCARGDGNYALDAMDYWGQGTSVTVSS
VL: EIQMTQSPSSLSASPGDRVTITCRASESVDSYGNSFMHWYQQKPGKVPKLLIYLASNLESGVPSRFSGSGSGTDFTLTISSLEPEDAATYYCQQNNEDPLTFGAGT
notes: also called felHclbH1-1YMN/felHclbK1-1; felHcLb-H1-1MN
Q: How did the Kd [11] turn out when B3 was run?
A: Its Kd is 263000 nM.

B4: Can-SL501_VH3/Can-SL501-VL1 (antibody, V domains shown)
VH: EVQLVESGGDLVKPGGSLRLSCVASGFTFSSYGMHWVRQAPGKGLQWVAVISYDGSIKYYADAVKGRFTISRDNAKNTLYLQMNSLRAEDTAVYYCARTGEYSGYDTDPQYSWGQGTTVTVSS
VL: EIVMTQSPASLSLSQEEKVTITCRASQGIGDDLGWYQQKPGQAPKLLIYGTSTLQSGVPSRFSGSGSGTDFSFTISSLEPEDVAVYYCLQDSNYPLTFGAGTK
notes: caninized IgG; constant regions not restated; also called ZTS-501
Q: Does B4 bind [12]?
A: Result: no binding

Q: What about the Kd [13] of the same binder?
A: Its Kd is 0.0218 nM.

Q: What about the “CMVIC pSmad-3, IC50” value [14] of the same binder?
A: The value was 4.91 nM.

B5: mHcLb (antibody, V domains shown)
VH: QVQLEESGPELVRPGASVKLSCKASGYIFITYWMNWVKQRPGQGLEWIGQIFPASGSTNYNEMFEGKATLTVDTSSSTAYMQLSSLTSEDSAVYYCARGDGNYALDAMDYWGQGT
VL: DIVLTQTPASLAVSLGQRATISCRASESVDSYGNSFMHWYQQKSGQPPKLLIYLASNLESGVPARFSGSGSRTDFTLTIDPVEADDAATYYCQQNNEDPLTFGAGTK
notes: murine antibody; also called 1D11; mHcLb (murine)
Q: For B5, which “pSmad-3, IC50” value [15] is on record?
A: The value was 1.11 nM.

Q: What about the “pSmad-3, IC50” value [16] of the same binder?
A: The value was 1.52 nM.

Q: And the “pSmad-3, IC50” value [17]?
A: The value was 11 nM.

Q: And the Kd [18]?
A: Its Kd is 0.223 nM.

Q: And the Kd [19]?
A: The Kd was 5.05 nM.

Q: What about the Kd [20] of the same binder?
A: Its Kd is 0.586 nM.

From patent US20220119513A1 (ZOETIS SERVICES, published 2022)
